In PMC11443083:

Legend:
[1] = target: T1, PAR1 receptor (1–425 amino acids) Y350A (human) (UniProt P25116)
T1 sequence: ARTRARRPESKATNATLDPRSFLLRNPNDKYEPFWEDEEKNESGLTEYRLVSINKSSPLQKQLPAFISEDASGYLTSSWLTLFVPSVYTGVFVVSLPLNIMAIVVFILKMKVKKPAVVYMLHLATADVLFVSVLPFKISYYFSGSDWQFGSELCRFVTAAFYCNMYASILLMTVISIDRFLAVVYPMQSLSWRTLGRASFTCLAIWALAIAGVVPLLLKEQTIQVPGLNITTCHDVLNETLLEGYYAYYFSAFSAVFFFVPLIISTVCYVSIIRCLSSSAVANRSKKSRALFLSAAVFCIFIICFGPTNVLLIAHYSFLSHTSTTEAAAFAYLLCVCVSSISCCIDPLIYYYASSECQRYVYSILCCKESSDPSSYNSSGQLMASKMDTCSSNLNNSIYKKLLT

[2] = target: T2, PAR1 receptor (1–425 amino acids) D256A (human) (UniProt P25116)
T2 sequence: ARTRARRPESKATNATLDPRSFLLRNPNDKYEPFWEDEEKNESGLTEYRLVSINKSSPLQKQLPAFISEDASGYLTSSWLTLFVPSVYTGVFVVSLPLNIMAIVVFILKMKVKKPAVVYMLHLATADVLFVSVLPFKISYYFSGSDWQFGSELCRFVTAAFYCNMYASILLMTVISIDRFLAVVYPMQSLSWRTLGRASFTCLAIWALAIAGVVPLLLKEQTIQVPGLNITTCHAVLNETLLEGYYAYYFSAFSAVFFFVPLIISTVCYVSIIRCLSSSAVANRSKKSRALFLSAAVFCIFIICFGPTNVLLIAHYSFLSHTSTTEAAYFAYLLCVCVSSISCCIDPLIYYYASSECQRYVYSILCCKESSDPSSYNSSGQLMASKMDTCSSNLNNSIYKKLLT

Q: Which NanoBiT Gαq–Gγ dissociation in HEK293T cells induced by the synthesized TA peptide; fold decrease of potency against WT PAR1 [1] does the source give for SFLLRN [Synthesized TA peptide (SFLLRN)] here?
A: Its NanoBiT Gαq–Gγ dissociation in HEK293T cells induced by the synthesized TA peptide; fold decrease of potency against WT PAR1 is 158 fold.

Q: And the NanoBiT Gαq–Gγ dissociation in HEK293T cells induced by the synthesized TA peptide; fold decrease of potency against WT PAR1 [2]?
A: Its NanoBiT Gαq–Gγ dissociation in HEK293T cells induced by the synthesized TA peptide; fold decrease of potency against WT PAR1 is 33 fold.
